# Measured values published in article PMC8835902, “DNA Polymerase-Parental DNA Interaction Is Essential for Helicase-Polymerase Coupling during Bacteriophage T7 DNA Replication”.
# Experiments:
# WAgp5;thioredoxin (trx) [1] = target: T1, WAgp5;thioredoxin (trx) (bacteriophage T7;Escherichia coli?, UniProt P00581;P0AA25 1-704;1-109, D5A;E7A;W579A|); test: EMSA; similar to WTgp5; 20 mM Hepes pH 7.5, 1 mM EDTA, 100 mM KCl, 0.1 mM bME, 5% glycerol, 0.10 mg/mL BSA, 10 nM DNA, 25 C (30 min; 15 min + 15 min for supershift); settings: protein: recombinant;recombinant; tags: ;; copies: 1;1; label: 5' Cy5 on primer; primer-template, 26 bp duplex, 32 nt 5' template overhang
# [2] = target: WTgp5 (T7 DNA polymerase, exo-);thioredoxin (trx) (bacteriophage T7;Escherichia coli?, UniProt P00581;P0AA25 1-704;1-109, D5A;E7A|); test: EMSA; 20 mM Hepes pH 7.5, 1 mM EDTA, 100 mM KCl, 0.1 mM bME, 5% glycerol, 0.10 mg/mL BSA, 10 nM DNA, 25 C (30 min; 15 min + 15 min for supershift); settings: protein: recombinant;recombinant, tags: ;, copies: 1;1, label: 5' Cy5 on primer
# WAgp5;thioredoxin (trx) [3] = target: T1, WAgp5;thioredoxin (trx); test: EMSA; 1 and 0 gap affinities similar; 20 mM Hepes pH 7.5, 1 mM EDTA, 100 mM KCl, 0.1 mM bME, 5% glycerol, 0.10 mg/mL BSA, 10 nM DNA, 25 C (30 min; 15 min + 15 min for supershift); settings: protein: recombinant;recombinant, tags: ;, copies: 1;1, label: 5' Cy5 on primer
# [4] = target: EQgp4 (T7 helicase);K3Dgp5;thioredoxin (trx) (bacteriophage T7;bacteriophage …, UniProt P03692;P00581;P0AA25 1-566;1-704;1-109, E343Q|D5A;E7A;K545D;K549D;K553D|); test: EMSA; K3Dgp5-trx stimulates EQgp4 binding; 20 mM Hepes pH 7.5, 1 mM EDTA, 100 mM KCl, 0.1 mM bME, 5% glycerol, 0.10 mg/mL BSA, 10 nM DNA, 25 C (30 min; 15 min + 15 min for supershift); settings: protein: recombinant;recombinant;recombinant; tags: His tag removed (PreScission);;; chain copies: 6;1;1; label: 5' Cy5 on primer; fork 1:2 2:3, 2 nt ssDNA gap between primer end and fork
# EQgp4 (T7 helicase) = EQgp4 (T7 helicase) (bacteriophage T7, UniProt P03692 1-566, E343Q); test: EMSA; dTTP; 20 mM Hepes pH 7.5, 1 mM EDTA, 100 mM KCl, 0.1 mM bME, 5% glycerol, 0.10 mg/mL BSA, 10 nM DNA, 25 C (30 min; 15 min + 15 min for supershift); settings: protein: recombinant; tags: His tag removed (PreScission); chain copies: 6; label: 5' Cy5 on primer; fork 1:2 2:3, 2 nt ssDNA gap between primer end and fork
# [5] = target: EQgp4 (T7 helicase);WTgp5 (T7 DNA polymerase, exo-);thioredoxin (trx) (bacteriophage T7;bacteriophage …, UniProt P03692;P00581;P0AA25 1-566;1-704;1-109, E343Q|D5A;E7A|); test: EMSA; EQgp4 titrated onto DNA pre-bound to WTgp5-trx (60-100 nM); 20 mM Hepes pH 7.5, 1 mM EDTA, 100 mM KCl, 0.1 mM bME, 5% glycerol, 0.10 mg/mL BSA, 10 nM DNA, 25 C (30 min; 15 min + 15 min for supershift); settings: protein: recombinant;recombinant;recombinant; tags: His tag removed (PreScission);;; chain copies: 6;1;1; label: 5' Cy5 on primer; fork 1:2 2:3, 2 nt ssDNA gap between primer end and fork
# EQgp4deltaC = EQgp4deltaC (bacteriophage T7, UniProt P03692 1-549, E343Q); test: EMSA; 20 mM Hepes pH 7.5, 1 mM EDTA, 100 mM KCl, 0.1 mM bME, 5% glycerol, 0.10 mg/mL BSA, 10 nM DNA, 25 C (30 min; 15 min + 15 min for supershift); settings: protein: recombinant; tags: His tag removed (PreScission); chain copies: 6; label: 5' Cy5 on primer; fork 1:2 2:3, 2 nt ssDNA gap between primer end and fork
binder,measurement,setting,value
Linear template-58nt (dsDNA) DNA 1: GGATTATTTACATTGGCAGATTCACC DNA 2: TTATTAGTTATGATATTCATGTATAGTTATATGGTGAATCTGCCAATGTAAATAATCC,binding result,WAgp5;thioredoxin (trx) [1],binds
same,Kd,"[2]; primer-template, 26 bp duplex, 32 nt 5' template overhang",53 nM
Fork template 1gap (mixed) DNA 1: GGATTATTTACATTGGCAGATTCACC DNA 2: TTATTAGTTATGATATTCATGTATAGTTATATGGTGAATCTGCCAATGTAAATAATCC DNA 3: TATTCATGTATAGTTATGTAGAGTCCGAGATCCGCGCTGCCAGTCGGCAGAGCC,binding result,"WAgp5;thioredoxin (trx) [3]; fork 1:2 2:3, 1 nt ssDNA gap",binds
same,Kd,"[2]; fork 1:2 2:3, 1 nt ssDNA gap",63 nM
Fork template 2gap (mixed) DNA 1: GGATTATTTACATTGGCAGATTCACC DNA 2: TTATTAGTTATGATATTCATGTATAGTTATATGGTGAATCTGCCAATGTAAATAATCC DNA 3: TATTCATGTATAGTTATGTAGAGTTCCGAGATCCGCGCTGCCAGTCGGCAGAGCC,binding result,[4],binds
same,Kd,EQgp4 (T7 helicase),24 nM
same,Kd,[5],8 nM
same,Kd,EQgp4deltaC,30 nM
same,Kd,"[2]; fork 1:2 2:3, 2 nt ssDNA gap between primer end and fork",36 nM
Fork template 0gap (mixed) DNA 1: GGATTATTTACATTGGCAGATTCACC DNA 2: TTATTAGTTATGATATTCATGTATAGTTATATGGTGAATCTGCCAATGTAAATAATCC DNA 3: TATTCATGTATAGTTATGTAGAGACCGAGATCCGCGCTGCCAGTCGGCAGAGCC,binding result,"WAgp5;thioredoxin (trx) [3]; fork 1:2 2:3, no gap",binds
same,Kd,"[2]; fork 1:2 2:3, no gap",110 nM
